These results are taken from article PMC6829621, “An RBPJ-Drosophila Model Reveals Dependence of RBPJ Protein Stability on the Formation of Transcription–Regulator Complexes” (Cells, 2019).

The target in the assay is T1, full-length Drosophila Hairless (Drosophila melanogaster, UniProt Q02308 1-1077).
T1 construct: Hairless (H), Drosophila melanogaster, full length (pEG-HFL); also called pEG-HFL; source: yeast two-hybrid fusion (EGY48 yeast, pEG202 vector)
T1 sequence (looked up): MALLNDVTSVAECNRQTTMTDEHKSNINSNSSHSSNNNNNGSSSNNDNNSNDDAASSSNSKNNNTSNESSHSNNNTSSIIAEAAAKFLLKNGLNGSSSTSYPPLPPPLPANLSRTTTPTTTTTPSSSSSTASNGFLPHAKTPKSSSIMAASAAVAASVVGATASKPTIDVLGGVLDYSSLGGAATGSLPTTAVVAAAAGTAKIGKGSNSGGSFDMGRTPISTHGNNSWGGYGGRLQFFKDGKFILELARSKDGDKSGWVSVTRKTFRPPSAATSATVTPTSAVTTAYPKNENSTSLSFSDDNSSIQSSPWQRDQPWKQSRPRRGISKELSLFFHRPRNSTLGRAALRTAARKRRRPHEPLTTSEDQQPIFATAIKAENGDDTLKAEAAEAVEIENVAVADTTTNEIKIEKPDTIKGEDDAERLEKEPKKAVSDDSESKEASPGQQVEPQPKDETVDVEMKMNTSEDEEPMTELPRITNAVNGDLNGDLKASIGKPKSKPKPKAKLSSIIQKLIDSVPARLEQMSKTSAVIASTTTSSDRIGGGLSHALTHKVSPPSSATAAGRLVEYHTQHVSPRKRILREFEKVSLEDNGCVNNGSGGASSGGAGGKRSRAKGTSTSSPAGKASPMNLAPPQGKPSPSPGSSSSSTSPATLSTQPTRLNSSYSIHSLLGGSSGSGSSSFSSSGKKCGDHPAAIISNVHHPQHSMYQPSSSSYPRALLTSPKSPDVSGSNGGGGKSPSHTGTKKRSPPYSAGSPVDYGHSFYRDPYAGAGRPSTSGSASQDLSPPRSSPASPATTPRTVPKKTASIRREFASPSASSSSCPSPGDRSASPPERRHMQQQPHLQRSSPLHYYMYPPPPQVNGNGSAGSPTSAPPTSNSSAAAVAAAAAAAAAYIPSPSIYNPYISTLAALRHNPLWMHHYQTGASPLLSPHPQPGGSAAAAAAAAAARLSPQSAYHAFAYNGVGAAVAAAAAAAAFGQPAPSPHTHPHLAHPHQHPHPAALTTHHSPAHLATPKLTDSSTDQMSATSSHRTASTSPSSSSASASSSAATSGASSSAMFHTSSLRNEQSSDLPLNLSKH
Briefly: two-hybrid; Golemis-Brent system in EGY48 yeast; H fused to LexA DNA-binding domain in pEG202, CSL variants fused to B42-AD in pJG4-5; lacZ reporter pSH18-34; qualitative, and quantified in Miller Units (six clones from two experiments). Particulars: partners not purified.

B1: mouse RBPJ, wild type (natural protein)
chain: not shown
notes: RBPJ, Mus musculus, full-length protein in pJG vector; This is the yeast construct, not the Su(H) exon 1-RBPJ fusion of the flies; also called RBPJ^wt; murine RBPJ; source: yeast two-hybrid fusion (EGY48 yeast, pJG4-5 vector)
As to B1, the “interaction strength relative to that between H and Su(H)” value was ~40%.
